Laboratory results reported in US20030032785.

Experiments:
[1] = system: T1, VEGF165 (vascular endothelial growth factor, 165 aa form) (Homo sapiens), P15692-4; experiment: filter; details: 2'-NH2 at all C and U; 2'-OMe A5,A16,G13,G17,G20,G24-26,G28; PS 2'-deoxy T caps 1-4 and 29-33
T1 sequence: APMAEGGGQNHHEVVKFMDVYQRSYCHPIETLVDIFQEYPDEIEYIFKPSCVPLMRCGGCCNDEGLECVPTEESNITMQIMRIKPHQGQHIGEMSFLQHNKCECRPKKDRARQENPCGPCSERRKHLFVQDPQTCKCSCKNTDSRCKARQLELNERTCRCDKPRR

[2] = system: T1, VEGF165 (vascular endothelial growth factor, 165 aa form) (Homo sapiens), P15692-4; experiment: competition; details: 2'-NH2 at all C and U; 2'-OMe A5,A16,G13,G17,G20,G24-26,G28; PS 2'-deoxy T caps 1-4 and 29-33; 125I-VEGF receptor binding

Sequence: TTTACCCUGAUGGUAGACGCCGGGGUGTTTTT [NX-214]
- Kd [1]: 0.2 nM
- Ki [2]: 1 nM
